In patent publication US6469153 (TRUSTEES OF COLUMBIA UNIVERSITY IN THE CITY OF NEW YORK, dated 2002):
Where two headings read alike, the source gives them in different places.

B1: GST-EIP-1 (other)
chain: MATGADVRDILELGGPEGDAASGTISKKDIINPDKKKSKKSSETLTFKRPEGMHREVYALLYSDKKDAPPLLPSDTGRGHRTVKAKLGSKKVRPWKWMPFTNPARKDGAMFFHWRRAAEEGKDYPFARFNKTVQVPVYSEQEYQLYLHDDAWTKAETDHLFDLSRRFDLRFVVIHDRYDHQQFKKRSVEDLKERYYHICAKLANVRAVPGTDLKIPVFDAGHERRRKEQLERLYNRTPEQVAEEEYLLQELRKIEARKKEEKRSQDLQKLITAADTTAEQRRTERKAPKKKLPQKKEAEKPAVPETAGIKFPDFKSAGVTLRSQRMKLPSSVGQKKIKALEQMLLELGVELSPTPTEELVHMFNELRSDLVLLYELKQACANCEYELQMLRHRHEALARAGVLGAPAAAAVGPTPASAEPTVSESGLGLDPTKDTIIDVVGAPLTPNSRKRRESASSSSSVKKAKKP
notes: It was used on glutathione agarose beads or eluted as soluble protein; also called EIP-1 fused with glutathione S-transferase; not shown: glutathione S-transferase (GST)

How the values were obtained:
[1] = molecular target: Envelope protein (TM) on amphotropic N2 virus (amphotropic murine retrovirus); assay: cell-based or functional assay
[2] = molecular target: Envelope protein (TM) on amphotropic N2 virus (amphotropic murine retrovirus); assay: cell-based or functional assay; remark: listed apart in the source
[3] = molecular target: Envelope protein (TM in the context of the whole envelope protein) on intact ecotropic N2 virus (Moloney murine leukemia virus) (UniProt P03385); assay: cell-based or functional assay
[4] = molecular target: T1, Envelope protein (TM in the context of the whole envelope protein) on intact ecotropic N2 virus (Moloney murine leukemia virus, UniProt P03385 34-649, limits assumed); assay: cell-based or functional assay
T1 sequence (looked up): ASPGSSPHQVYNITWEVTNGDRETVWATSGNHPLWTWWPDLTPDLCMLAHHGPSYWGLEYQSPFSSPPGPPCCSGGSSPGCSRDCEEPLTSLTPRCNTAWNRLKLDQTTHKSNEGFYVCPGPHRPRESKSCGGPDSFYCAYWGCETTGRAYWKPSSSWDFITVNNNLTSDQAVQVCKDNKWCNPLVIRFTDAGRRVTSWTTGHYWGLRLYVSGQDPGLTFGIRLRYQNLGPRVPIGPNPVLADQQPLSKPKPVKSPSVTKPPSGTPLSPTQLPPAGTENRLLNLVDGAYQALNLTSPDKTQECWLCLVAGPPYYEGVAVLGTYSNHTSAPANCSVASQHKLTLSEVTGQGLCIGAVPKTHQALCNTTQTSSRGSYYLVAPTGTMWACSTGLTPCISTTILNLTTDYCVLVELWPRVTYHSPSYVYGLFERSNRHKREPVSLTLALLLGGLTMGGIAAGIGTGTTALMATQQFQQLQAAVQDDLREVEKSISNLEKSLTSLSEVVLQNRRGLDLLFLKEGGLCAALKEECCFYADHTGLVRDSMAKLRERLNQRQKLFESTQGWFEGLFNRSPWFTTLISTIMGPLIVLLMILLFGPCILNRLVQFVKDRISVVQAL

[5] = molecular target: T1, Envelope protein (TM in the context of …); assay: depletion of N2 virus by GST-EIP-1 beads; titer of remaining virus
Description: EIP-1 to EIP-5 have been examined using this assay to directly measure the binding of EIPs to the intact virus. In this binding assay, virus is mixed with GST-EIP-agarose beads and incubated for 2 hours. After incubation, the mixtures are centrifuged, and the supernatants are used to transduce fresh NIH3T3 cells. After two days, cells are split into G418-containing medium. Ten to twelve days later, colonies are counted. If the virus binds to EIPs, virus is retained on agarose beads leading to a reduction in virus titer in supernatant. […] In control samples, virus was incubated with GST-agarose beads or beads alone, and no change in virus titer was observed (Table 2).
Whether EIP-1 could interact with TM on the native virion particle was tested. GST-EIP-1 beads were incubated with preparations of a virus vector (N2) containing the neoR gene and pelleted, and the titer of the remaining virus was determined to test for depletion of infectivity from the stock. Whereas beads alone, beads containing GST, or beads with control GST fusions had no effect on the titer, beads with GST-EIP-1 could consistently reduce the titer approximately 4-fold.

Molecule | Fold Increase (amphotropic N2 virus on NIH3T3 cells) [1] [fold] | Neo^r Colonies, 1:1 (amphotropic N2 virus on NIH3T3 cells) [1] [colonies] | Neo^r Colonies, 1:5 (amphotropic N2 virus on NIH3T3 cells) [1] [colonies] | Fold Increase (amphotropic N2 virus on NIH3T3 cells) [2] [fold] | Neo^r Colonies, Amphotropic N2 virus 5 µl (1:10), NIH3T3 cells [2] [colonies] | Neo^r Colonies, Amphotropic N2 virus 5 µl (1:25), NIH3T3 cells [2] [colonies] | Fold Increase (ecotropic N2 virus on NIH3T3 cells) [3] [fold] | Neo^r Colonies, 1:1 (ecotropic N2 virus on NIH3T3 cells) [3] [colonies] | Neo^r Colonies, 1:5 (ecotropic N2 virus on NIH3T3 cells) [3] [colonies] | further results
GST-EIP-1 (from UniProt Q9JI44 1-468) |  |  |  |  |  |  |  |  |  | increase of titer of amphotropic viruses titered on human cells [1]: 5 to 8 fold
GST-EIP-1A (from UniProt Q9JI44 1-468) | 7 | 854 | 136 | 8 | 854 | 136 |  |  |  | 
GST-EIP-1B (from UniProt Q9JI44 1-468) | 5 | 403 | 102 | 6 | 403 | 102 | 30 | > 1000 | 353 | Fold Increase (amphotropic N2 virus on Hela cells) [1]: 6 fold; Neo^r Colonies, Amphotropic N2 virus 5 µl (1:25), Hela cells [1]: 594 colonies
GST-EIP-2 (from UniProt P08515 1-218) |  |  |  |  |  |  | 1 | 69 | 24 | CFU/2 ul virus (Neo^r colonies after incubation of virus with purified protein, 1 µg/ml, 37° C., 1 h) [3]: 24 CFU; CFU/10 ul virus (Neo^r colonies after incubation of virus with purified protein, 1 µg/ml, 37° C., 1 h) [3]: 69 CFU; Ratio (enhancement of virus infectivity) [3]: 1
B1 |  |  |  |  |  |  |  |  |  | Ratio (enhancement of virus infectivity) [4]: 30 ratio; fold reduction of the titer of remaining virus [5]: ~4 fold
